This is an account of results in the nanobody polyreactivity screen of Harvey et al. (2022).

The nature of this data set: yeast display, Sf9 membrane polyspecificity reagent, FACS + sequencing; frameworks hold sequencing errors. The gist of the method:
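Nanobodies came from a synthetic yeast display library in Saccharomyces cerevisiae BJ5465, induced with galactose for 36–48 hours and stained for 1 hour at 4 °C with 10% biotinylated, detergent-solubilized Sf9 membrane reagent. Cells were enriched on streptavidin microbeads and then FACS-sorted, with low and high (top ~1%) gates set on anti-HA fluorescence for expression and streptavidin fluorescence for reagent binding. Each polyreactivity label reflects the gate a clone came from. Genes were amplified by colony PCR, sequenced by MiSeq 2 × 250 and filtered by CDR length.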
For the sequence “QDQLVESGGGLVQAGGSLRLSCAASGLTFEVYAMGWYRQAPGKERELVAAISSGGGSKYYADSVKGRFTISRDNAKNTVYLQMISLKPEDTAVYYCNAVAKLYYWRYDYLGQGTQVTVSS”, the “polyreactivity (PSR sort gate)” value is “low polyreactivity”.
On to “QVQLVESGGGLVQAGGSLRLSCAASGSTLAIYAKGWYRQAPGKERELVAAISGGGSTYADSVKGRFTISRDNAKNTVYLQMNSLKPEDTAVYYCNADGWGDRFWSNFRFDYWGQGTQVTVSS”, for which the “polyreactivity (PSR sort gate)” value is on record as “low polyreactivity”.
In the case of “QVQLVESGGGLVQAGGSLRLSCGASGIIFASNGMGWYRQAPGKERELVAAISSGGSTNYADSVKGRFTISRDNAKNTVYLQMNSLKPEDTSVYYCAADRWYREYDYWGQATQVTVSS”, the “polyreactivity (PSR sort gate)” value is recorded as “low polyreactivity”.
In the case of “QVQLVESGGGLVQAGGSLRLSCAASGSTFYYYAMGGYRQAPGKERELVAAINDAGGTNYADSVKGRFTISRDNAKNTVYLQMNSLKPEDTAVYYCAADGRIYLTYHEMEYWGQVTQVTVSS”, the “polyreactivity (PSR sort gate)” value is given as “low polyreactivity”.
In the case of “QVQLVESGGGLVQAGGSLRLSCAASGRTFARYAMGWYRQAPGKERELVASIRRGTSTNYADSVKGRFTISRDNAKNTVYLQMNSLKPEDTAVYYCAARVGTEGYHGDYWGQGTQVTVSS”, the “polyreactivity (PSR sort gate)” value was “high polyreactivity”.
As for “QVQLVESGGGLVQAGGSLRLSCAASGTTYYNAMGWYRQAPGKERELVAAIRFRSGSTYYADSVKGRFTISRDNAKNTVYLQMNSLKPEDTAVYYFAADNKRSWRYAYNYWGQGTQVTVSS”, the “polyreactivity (PSR sort gate)” value was “high polyreactivity”.
In the case of “QVQLVESGGGLVQAGGSLRLSCAASGRTFSYYAMGWYRQAPGKERELVARITYRGGRTYYADSVKGRFTISRDNAKNTVYLQMNSLKPEDTAVYYCATTSWRYGYDYWGQGSQVTVSS”, the “polyreactivity (PSR sort gate)” value is given as “high polyreactivity”.
On to “QVQLVDSGGGLVQAGGSLRLSCAASGSILYPYAMGWDRQAPGKEREFVAAITYGGGRTYYADSVKGRFTISRDNAKNTVYLQMNSLKPEDTAVYYCAAKSVYAGRRRIYYLWYDYWGQGTQVTVSS”, for which the “polyreactivity (PSR sort gate)” value is listed as “high polyreactivity”.
For the sequence “QVQLVESGGGLVQAGGSLRLSCAASGNTFGENAMGWDRQAPRKETELVAAITYGGTTNYADSVKGRFTISRDNAKNTVYLQMNSLKPEDTAVYYCNAKFGISQPGHSGLLKMDYWGQGTQVTVSS”, the “polyreactivity (PSR sort gate)” value is “low polyreactivity”.
In the case of “QVQLVESGGGLVQAGGSLRLSCAASGRIFTYYAMRWYRQAPGKERELVAGITGSGASTYYADSVKGRFTISRDNAKNTVYLQMNSLKPEDTAVYYCNAPYVIRPFRGRYDYWGQGTLVTVSS”, the “polyreactivity (PSR sort gate)” value is “high polyreactivity”.
Turning to “QVQLVESGGGLVQAGGRLRLSCAASGSIFEGYVMGWYRQAPGKERELVAAITTGGGSTYYADSVKGRFTISRDNAKNTVYLQMNSLKPEDTAVYYCAKDGGRWGQGTQVTVSS”, the “polyreactivity (PSR sort gate)” value is recorded as “low polyreactivity”.
“QVQLVESGGGLVKEGGSLRLSCAASGRIFGPYAMGWYRQAPGKERELVAVITNSGSTNYADSVKGRFTISRDNAKNSVYLQMNCLKPEDTAVYYCNRFEGGAYGSNFDYWGQGTQVTVSS”: the “polyreactivity (PSR sort gate)” value is “high polyreactivity”.
“QVQLVESGGCLVQAGGSLRLSCAASGRIFPGYAMVWYRQAPGKERELVAAISASGGSTYYADSVKGRFTISRDNAKNSVYFQIISLKPEDTAVYYCNAVYRLIRFDYWGQGSQVTVSS”: the “polyreactivity (PSR sort gate)” value was “high polyreactivity”.
In the case of “QVQIVESGGVIVQAGGSLRLSCAASGRIISYYTMGWYRQAPGKERELVAAISVSSGRTYYADSVKGRFTISRDNAKNTVYLQMNSLKPEDTAVYYCDAKYLARSAYDYWGQGTQVTVSS”, the “polyreactivity (PSR sort gate)” value is on record as “high polyreactivity”.
“QVQLVESGGGLVQAGGSLRLSCAASGLTLHGNAMGWYSQAPGKERGLVATITSSGGSTFYADSVKGRFTISRDNAKNTVSLQMNSLKPEDTAVFYCNADAPYSDDYYVRFDYWGQGTQVTVSS”: the “polyreactivity (PSR sort gate)” value is recorded as “low polyreactivity”.
With “QVQLVESGGGLVQAGGSLRLSCDASGSIFYYNAMGWYRQAPGKERELVAAISVSGGSTYYADSVKGRFTISRDNAKNTVYLQMNSLKPEDTAVYYCAAEWLYYYWLPGRADYLEYDYWGQGTQVTVSS” the entry was “low polyreactivity”.
With “QVQLVESGGGLVQAGGSLRLSCAASGRTFLYVMGWYRQAPGKERELVAAISRGGSTSYADSVKGRFTISRDNAKNTVYLQMNSLKPEDTAVYYCAATNYWRDGYWGQGTQVTVSS”, the “polyreactivity (PSR sort gate)” value is listed as “high polyreactivity”.
On to “QVQLVESGGGLVQAGGSLRLSCAASGRIFGWYTMGWYRQAPGKERELVADINFGGSTYYADSVKGRFTISRDNAKNTVYLQMNSLTPEDTAVYYCNADYSVYIIADEYDYCGQGTQVTVSS”, for which the “polyreactivity (PSR sort gate)” value is listed as “low polyreactivity”.
Next, “QVQLVESGGGLVQAGGSLRLSCAASGITFYVYTMGWYRQAPGKERELVAAINGSGGSTNYADSVKGRFTISRDNAKNTVYLLMNSLKPEDTAVYYCAADWSLRLYDYWGQGTQVTVSS”: “low polyreactivity”; “QVQLVESGGGLVQAGGSLRLSCAASGFIFKGNAMGWYRPAPGKERELVAAISSRGGSTYYADSVKGRFTISRDNAKNTVYLQMNSLKPEDTAVYYCATRVYWRNDYWGQGTQVTVSS”: “high polyreactivity”.
Consider “QVQLVESGGGLVQAGGSLRLSCAASGITFSYNDMGWYRPAPGKEREFVATIRGSTARTYNADSVKGRFTISRDNAKNTVYLQMNSLKPEDTAVYYGAAGKYWYGYDYWGQGTQVTVSS”, for which the “polyreactivity (PSR sort gate)” value is given as “high polyreactivity”.
With “QVQLVESGGGLVQAGGSLRLSCAASGLTFEHNAMGWYRQAPGKEREFVAVISWRGTSTYYADSVKGRFTISRDNAKNTVYLQMNSLKPEATAVYYCAAGYRGVANRKWIYYYWGQGTQVTVSS”, the “polyreactivity (PSR sort gate)” value is listed as “high polyreactivity”.
Consider “QVQLVESGGGLVQAGRSLRLSCAASGSIFAWYGMGWYRQAPGKERELFAAISTDGSTNYADSVKGRFTISRDNAKNSVYLQMISLKREDTAVYYCAKKSSLYYPERFDYWGQGTQGTVSS”, for which the “polyreactivity (PSR sort gate)” value is recorded as “low polyreactivity”.
“QVQLVESAGGLVQAGGSLRLSCAASGFIFEWYTMGWYRHAPGKERELVARISSDGSTTYADSVKGRFRISRDNAKNTVYLQMNSLKPEDTAVYYCAADVTYPGLKYIFDYWGQGSQVTVSS”: the “polyreactivity (PSR sort gate)” value is listed as “low polyreactivity”.
With “QVQLVESGGGLVQAGGSLRLSCAASGSTFNSNVMGWYRQAPGKERELVAAISRSGGNTYYADSVKGRFTISRDNAKNTVYLQMNSLKPEDTAVYYCNKAGRYPYDYWGQGTQVTVSS” the entry was “high polyreactivity”.
In the case of “QVQLEESGGGLLQAGGSLRLTCAASGFTFYYYAMGWYRLATGKERYLVAAISGGGGSTYYADSVKGRFTISRDNAKNTVYLPMNSMKPEDTAVYYCAAVGSWRYNYDYDYWGQGSQVTVSS”, the “polyreactivity (PSR sort gate)” value is listed as “high polyreactivity”.
On to “QVQLVESGGGLVQAGGSLRLSCAASGSTFQSKAMGWYRQAPGKERELVAAINSGTSTYYADSVKGRFTISRDNAKNTVYLQMNSLKPEDTAVYYCAADGIWGEYYYSELGDYDYWGQGTQVTVSS”, for which the “polyreactivity (PSR sort gate)” value is “low polyreactivity”.
For “QVQLVESGGGLVQAGGSLRLSCAASGFTFYYYALGWYRQAPGKERELVAAISTRDGNTYYADSVKGRFTISRDNAKNTVYLQMNSLKPEDTAVYYCAADSYSGYNYWGQGTQVTVSS”, the “polyreactivity (PSR sort gate)” value is recorded as “low polyreactivity”.
On to “QVHLVESGGGLVQAGGSLRLSCAASGFIFYYYAMGWYRQAPGKERELVASISAIGGGTYYADSVNGRFTISRDNAKNTVYLQMNSLKPEDTAVYYCDPDGDGWWWSYVDRYDYWGQGTQVTVSS”, for which the “polyreactivity (PSR sort gate)” value was “low polyreactivity”.
“QVQLVESGGGLVQAGGSLRLSCAASGNIFSGNAMGWYRQAPGKERELVAAISWSGGSTYYADSVKGRFTISRDNAKNTVYLQMNSLKPEDTAVYYCNKDLYADGQYNYDYWGQGTQVTVSS”: the “polyreactivity (PSR sort gate)” value is “low polyreactivity”.
For “QVQLVESGGGLVQAGGSLRLSCAASGIIFWRYAMGWYRQAPGKERELVAAISRRGGSTYYADSVKGRFTISRDNAKITVYLQMNSLKPEDTAVYYCAVLDWTLHYRSDYWGQGTQVTVSS”, the “polyreactivity (PSR sort gate)” value is “high polyreactivity”.
For the sequence “QVQLVESGGGLVQAGGSLRLSCAASGRIFDINAMGWYRQAPGKESELVAAISRGGSTYYADSVKGRFTISRDNAKHTVDLQMNSLKPQDTAVYYCNKYRYRGSTVFDGYDYWGQGTQVTVSS”, the “polyreactivity (PSR sort gate)” value was “high polyreactivity”.
Next, “QGQLVESGGGLVQAGGSLRLSCAASGSIFTFYTLGWYREAPGKVRELVAAINWSGSRTYYAASVKGRFTISRDNAKNTVYLQMNSLKPEDTAVYYCNAAIRYDWYQVLWNFSRESNYWGQGTQVTVSS”: “high polyreactivity”; “QVQLGESGGGLVQAGGSLRLSCAASGFIFFSNAMGWYRQAPGKERELVAAIRSGGSTNYADSVKGRFTISRDNAKNTVYLQMNSQKPEDTAVYYCNVLWLRSRRKYDYWGQGTQVTVSS”: “low polyreactivity”; “QVQLVESGGGLVQAGGSLRLSCAASGRTFRLYAMGWYRQAPGKERELVAAISWRGGRTYYADSVKGRFTISRDNAKNTVYLQMNSLKPEDTAVYYCAAEDGYGQYDYWGQGTQVTVSS”: “high polyreactivity”.
For the sequence “QVQLVESGGGLVQAGGSLRLSCAASGFTFGYYVRGWYRQAPGKERELVAAITSGGSTYYADSVKGRFTISRDNAKNTVYLQMNSLKPEDTAVYYCAAFLGATYYYWGQGTQVTVSS”, the “polyreactivity (PSR sort gate)” value was “high polyreactivity”.
For “QVQLVESGGGLVQAGGSLRLSCAASGSIFPYYTMGWYRQAPGKERELVAGISSGGSTNYADSVKGRFTISRDNAKNTVYLQMNSLKPEDTAVYYCNARRYWLRYDYWGQGTQVTVSS”, the “polyreactivity (PSR sort gate)” value was “low polyreactivity”.
As to “QVQLVESGGGLVQAGGSLRLSCAASGRTFGFYAMGWYRQAPGKERELVATISSSGGSTYYADSVKGRFTISRDNAKNTVYLQMNSLKPEDTAVYYCAKVVSGWRSHYIGDYWGQGTQVTVSS”, the “polyreactivity (PSR sort gate)” value is reported as “low polyreactivity”.
Consider “QVQLVESGGGLVQAGGSLRLSCADSGSTFGKNAMGWYRQAPGKDRELVAAITRRGVSTNYADSEKGRFTISRDNAKNTVYLQMNSLKPEDTAVYYCARGSELGYYAWVYYLGQGTQVTVSS”, for which the “polyreactivity (PSR sort gate)” value is on record as “high polyreactivity”.
As for “QVQLVESGGGLVQAGGSLRFSCAASGRIFGDYAMGWYRLAPGKERELVAAISWSDGSTYYADSVKGRFTISRDNAKNTVYLQMNSLKPEDTAVYYCAASYWDTEPGYREYDYWGQGTQVTVSS”, the “polyreactivity (PSR sort gate)” value is “low polyreactivity”.
“QVQLVESGVGLVQAGGSLRLSCAASGSTFGGNAMGWYRQAPWKERELVADITFSGGSTSYAHSVKGSFTISRDNAKNTVYLLMNRLKPEDTAVYYCNRDYPEIIVAGLDFWGQGTQLTVSS”: the “polyreactivity (PSR sort gate)” value is on record as “low polyreactivity”.
